Data from PMC11066036.

Molecular target: T1, HPK1 intact citron homology domain fragment (C428-E821), untagged, Q92918-2
T1 chain: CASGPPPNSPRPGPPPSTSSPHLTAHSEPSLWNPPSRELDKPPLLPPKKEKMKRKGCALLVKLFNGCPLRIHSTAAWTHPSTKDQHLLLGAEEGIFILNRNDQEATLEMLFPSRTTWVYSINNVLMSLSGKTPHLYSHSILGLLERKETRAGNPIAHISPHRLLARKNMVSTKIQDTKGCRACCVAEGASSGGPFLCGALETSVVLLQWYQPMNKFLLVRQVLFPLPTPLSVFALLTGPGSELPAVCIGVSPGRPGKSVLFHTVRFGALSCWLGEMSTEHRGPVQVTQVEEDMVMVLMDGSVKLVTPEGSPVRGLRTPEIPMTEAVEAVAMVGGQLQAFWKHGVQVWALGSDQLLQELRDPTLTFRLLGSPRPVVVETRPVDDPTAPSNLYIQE
Experiment: SPR
Details: chain shown with the change; left plot; plateau of the last (highest) of five successive CHD injections, about 800-900 s; CHD concentrations not given; read off a plot

B1: HPK1 kinase domain wild type (D2-N293) S171A (protein)
chain: DVVDPDIFNRDPRDHYDLLQRLGGGTYGEVFKARDKVSGDLVALKMVKMEPDDDVSTLQKEILILKTCRHANIVAYHGSYLWLQKLWICMEFCGAGSLQDIYQVTGSLSELQISYVCREVLQGLAYLHSQKKIHRDIKGANILINDAGEVRLADFGISAQIGATLARRLAFIGTPYWMAPEVAAVALKGGYNELCDIWSLGITAIELAELQPPLFDVHPLRVLFLMTKSGYQPPRLKEKGKWSAAFHNFIKVTLTKSPKKRPSATKMLSHQLVSQPGLNRGLILDLLDKLKN
  response (Response Units): 42
